Assays:
[1] = molecular target: SA-Fc fusion protein (bivalent SA-Fc variant; TGEV S residues 481 to 650); experiment: flow cytometry on cells (FACS, percentage of stained cells); settings: transiently transfected 293T cells expressing similar amounts of HA-tagged pAPN proteins; parent: est. 100; read off a plot
[2] = molecular target: porcine aminopeptidase N (pAPN) on the surface of BHK-pAPN cells (UniProt P15145); experiment: as above; settings: same concentration of wild type and mutant SA-Fc proteins, parent: est. 100, read off a plot
[3] = molecular target: the molecule itself; experiment: SEC; soluble pAPN ectodomain on Superdex 200 16/60, HEPES-saline buffer pH 7.5
[4] = molecular target: T1, SA-Fc fusion protein (bivalent SA-Fc variant; TGEV S residues 481 to 650) (Transmissible gastroenteritis virus …, strain); experiment: ELISA
T1 construct: not shown: HA, N-terminal, kept; Fc (human IgG1), C-terminal, kept
T1 chain: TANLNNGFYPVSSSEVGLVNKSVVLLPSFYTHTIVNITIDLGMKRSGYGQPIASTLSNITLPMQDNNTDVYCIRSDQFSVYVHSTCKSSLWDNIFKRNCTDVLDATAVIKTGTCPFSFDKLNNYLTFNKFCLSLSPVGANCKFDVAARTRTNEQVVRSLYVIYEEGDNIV

Molecule: recombinant membrane bound pAPN with an HA tag at the C-terminal end (from UniProt P15145) N736A
- percent of parent [1]: 3%

Molecule: SA-Fc fusion protein (bivalent SA-Fc variant; TGEV S residues 481 to 650) V617Ngly
- percent of parent [2]: 105%

Molecule: SA-Fc fusion protein (bivalent SA-Fc variant; TGEV S residues 481 to 650) N632A
- percent of parent [2]: 15%

Molecule: recombinant membrane bound pAPN with an HA tag at the C-terminal end (from UniProt P15145) T738V
- percent of parent [1]: 3%

B1: engineered soluble pAPN (ectodomain, residues 36 to 963) (domain or fragment)
chain: EKNKNAEHVPQAPTSPTITTTAAITLDQSKPWNRYRLPTTLLPDSYNVTLRPYLTPNADGLYIFKGKSIVRLLCQEPTDVIIIHSKKLNYTTQGHMVVLRGVGDSQVPEIDRTELVELTEYLVVHLKGSLQPGHMYEMESEFQGELADDLAGFYRSEYMEGNVKKVLATTQMQSTDARKSFPCFDEPAMKATFNITLIHPNNLTALSNMPPKGSSTPLAEDPNWSVTEFETTPVMSTYLLAYIVSEFQSVNETAQNGVLIRIWARPNAIAEGHGMYALNVTGPILNFFANHYNTSYPLPKSDQIALPDFNAGAMENWGLVTYRENALLFDPQSSSISNKERVVTVIAHELAHQWFGNLVTLAWWNDLWLNEGFASYVEYLGADHAEPTWNLKDLIVPGDVYRVMAVDALASSHPLTTPAEEVNTPAQISEMFDSISYSKGASVIRMLSNFLTEDLFKEGLASYLHAFAYQNTTYLDLWEHLQKAVDAQTSIRLPDTVRAIMDRWTLQMGFPVITVDTKTGNISQKHFLLDSESNVTRSSAFDYLWIVPISSIKNGVMQDHYWLRDVSQAQNDLFKTASDDWVLLNVNVTGYFQVNYDEDNWRMIQHQLQTNLSVIPVINRAQVIYDSFNLATAHMVPVTLALDNTLFLNGEKEYMPWQAALSSLSYFSLMFDRSEVYGPMKKYLRKQVEPLFQHFETLTKNWTERPENLMDQYSEINAISTACSNGLPQCENLAKTLFDQWMSDPENNPIHPNLRSTIYCNAIAQGGQDQWDFAWGQLQQAQLVNEADKLRSALACSNEVWLLNRYLGYTLNPDLIRKQDATSTINSIASNVIGQPLAWDFVQSNWKKLFQDYGGGSFSFSNLIQGVTRRFSSEFELQQLEQFKKNNMDVGFGSGTRALEQALEKTKANIKWVKENKEVVLNWFIEHS
- stoichiometry N [3]: 2

B2: TGEV-neutralizing monoclonal antibody 1AF10 (site A, subsite Ac) (antibody, V domains shown)
VH: QVQLQQSGPELVKPGASVKISCKASGYAFSSSWMNWVKQRPGQGLEWIGRIYPGDGETNYSEKFKGKATLTADKSSSTAYMHLSSLTSVDSAVYFCARGGYRYDPYYAMDYWGQGTSVTVSS
VL: DILLTQSPAILSVSPGERVSLSCRASQSIGTSIHWYQQRTNGSPRPLIKYASESISGIPSRFSGSGSGTDFTLNINSVESEDIADYFCQQTDSWPTTFGAGTKLELK
notes: also called 1AF10 mAb; mAb 1AF10; source: hybridoma cells; purified mAb or hybridoma supernatant; copies: 2 + 2
- binding result [4]: binds

Reference: publication PMC3410853 (PLoS Pathogens, 2012)
